Earlier results as cited in publication PMC10108826.

Molecular target: sIL-6R soluble ECD (Homo sapiens) (UniProt P08887)
Sequence of UniProt P08887 (P08887 20-355): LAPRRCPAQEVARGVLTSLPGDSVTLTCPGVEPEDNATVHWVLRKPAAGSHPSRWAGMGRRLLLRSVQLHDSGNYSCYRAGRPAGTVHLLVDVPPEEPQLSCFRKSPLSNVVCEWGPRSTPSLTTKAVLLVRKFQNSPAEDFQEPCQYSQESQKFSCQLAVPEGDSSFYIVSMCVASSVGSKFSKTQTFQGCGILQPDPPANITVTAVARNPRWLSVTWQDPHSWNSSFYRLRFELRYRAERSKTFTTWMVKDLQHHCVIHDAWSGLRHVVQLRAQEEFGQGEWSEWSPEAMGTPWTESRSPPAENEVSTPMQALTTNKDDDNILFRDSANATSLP

Kd: 1 nM
Substance: IL-6 (from UniProt P05231)
